Results as given in patent US8530168B2, “Fusion protein comprising a Caspase domain and a nuclear hormone receptor binding domain and methods and uses thereof” (Helmholtz Zentrum Munich Deutsches Forschungszentrum fuer …, priority 2007, dated 2013).

B1: Casp9full-ER(T2): full length murine Caspase-9 fused to ER(T2) ligand binding domain, SEQ ID NO: 29 (protein)
chain: MDEADRQLLRRCRVRLVSELQVAELWDALLSRELFTRDMIEDIQQAGSGSRRDQARQLVTDLETRGRQALPLFISCLEDTGQGTLASLLQSGRQAAKQDPEAVKPLDHLVPVVLGPMGLTAKEQRVVKLDPSQPAVGNLTPVVLGPEELWPARLKPEVLRPETPRPVDIGSGGAHDVCVPGKIRGHADMAYTLDSDPCGHCLIINNVNFCPSSGLGTRTGSNLDRDKLEHRFRWLRFMVEVKNDLTAKKMVTALMEMAHRNHRALDCFVVVILSHGCQASHLQFPGAVYGTDGCSVSIEKIVNIFNGSGCPSLGGKPKLFFIQACGGEQKDHGFEVACTSSQGRTLDSDSEPDAVPYQEGPRPLDQLDAVSSLPTPSDILVSYSTFPGFVSWRDKKSGSWYIETLDGILEQWARSEDLQSLLLRVANAVSAKGTYKQIPGCFNFLRKKLFFKTSVEPSAGDMRAANLWPSPLMIKRSKKNSLALSLTADQMVSALLDAEPPILYSEYDPTRPFSEASMMGLLTNLADRELVHMINWAKRVPGFVDLTLHDQVHLLECAWLEILMIGLVWRSMEHPVKLLFAPNLLLDRNQGKCVEGMVEIFDMLLATSSRFRMMNLQGEEFVCLKSIILLNSGVYTFLSSTLKSLEEKDHIHRVLDKITDTLIHLMAKAGLTLQQQHQRLAQLLLILSHIRHMSNKGMEHLYSMKCKNVVPLYDLLLEAADAHRLHAPTSRGGASVEETDQSHLATAGSTSSHSLQKYYITGEAEGFPATA
modifications: fusion protein Casp9full-ER(T2)
B2: myrCasp8-ER(T2): murine Caspase-8 domain with N-terminal myristoylation motif fused to ER(T2) ligand binding domain, SEQ ID NO: 23 (protein)
chain: MGSSKSKPKDPSQRSESRTSDKVYQMKNKPRGYCLIINNHDFSKAREDITQLRKMKDRKGTDCDKEALSKTFKELHFEIVSYDDCTANEIHEILEGYQSADHKNKDCFICCILSHGDKGVVYGTDGKEASIYDLTSYFTGSKCPSLSGKPKIFFIQACQGSNFQKGVPDEAGFEQQNHTLEVDSSSHKNYIPDEADFLLGMATVKNCVSYRDPVNGTWYIQSLCQSLRERCPQGDDILSILTGVNYDVSNKDDRRNKGKQMPQPTFTLRKKLFFPPLEPSAGDMRAANLWPSPLMIKRSKKNSLALSLTADQMVSALLDAEPPILYSEYDPTRPFSEASMMGLLTNLADRELVHMINWAKRVPGFVDLTLHDQVHLLECAWLEILMIGLVWRSMEHPVKLLFAPNLLLDRNQGKCVEGMVEIFDMLLATSSRFRMMNLQGEEFVCLKSIILLNSGVYTFLSSTLKSLEEKDHIHRVLDKITDTLIHLMAKAGLTLQQQHQRLAQLLLILSHIRHMSNKGMEHLYSMKCKNVVPLYDLLLEAADAHRLHAPTSRGGASVEETDQSHLATAGSTSSHSLQKYYITGEAEGFPATA
modifications: N-terminal myristoylation motif; fusion protein myrCasp8-ER(T2)

Assays:
[1] = test system: Pac2 cells; assay: Transient cotransfection with β-galactosidase reporter into Pac2 cells; type: cell-based, zebrafish; settings: 10^−8 M 4-OH-tamoxifen, Cre-ER(T2) as reference, range given jointly for HeLa and Pac2
Method: (§1) Results are shown as mean values of triplicate samples with standard deviation. (b) Transient cotransfection of a β-galactosidase reporter with a Cre-ER(T2), myrCasp8-ER(T2), or Casp9-ER(T2) expression plasmid into murine M5/N9 (black columns), human HeLa (grey columns) or zebrafish Pac2 (open columns) cells. 12 h following transfection, cells were cultured for 36 h with 4-OH-tamoxifen at 10^−8 M and the activity of β-galactosidase in cell lysates was determined. Values obtained from transfections of the Cre-ER(T2) vector were defined as reference. Results are shown as mean values of triplicate samples with standard deviation.
PAC2 zebrafish fibroblasts were grown in Leibowitz's L15—with L-Glutamine medium supplemented with 1% Non-essential Amino Acids, 1% Penicillin/Streptomycin and 10% fetal calf serum (all Gibco) at 28° C. 3×10^6 Cells were transiently transfected with the plasmids CMVβ together with CAG-CreER(T2), CAG-myrCasp8ER(T2) or CAG-Casp9ER(T2) (500 ng each) using nanofectin transfection reagent (PAA). 24 hrs after transfection the medium was replaced and conditioned with 10^−8 M 4-OH-tamoxifen. Before lysis, the cells were incubated for another 24 hrs at 28°. […]

[2] = test system: HeLa cells; assay: Transient cotransfection with β-galactosidase reporter into HeLa cells; type: cell-based, human; settings: 10^−8 M 4-OH-tamoxifen, Cre-ER(T2) as reference, range given jointly for HeLa and Pac2
Method: as §1
Transient transfections into M5/N9 and HeLa cells were performed with FuGene transfection reagent (Roche) following the manufacturer's instructions. Briefly, semiconfluent cultures in a 24-well plate were transfected in triplicate with 112 ng of the β-galactosidase expression vector CMVβ(Invitrogen) and the same amount of pCAG-Cre-ER(T2), pCAG-Casp8-ER(T2) or pCAG-Casp9-ER(T2) plasmid DNA. After 12 h 4-OH-tamoxifen was added at a concentration of 10^−8 M and the cultures were lysed at 48 h. Cell lysis and the measurement of β-galactosidase activity by chemiluminescence were performed with the β-galactosidase reporter gene assay (Roche) using a Centro LB960 plate luminometer (Berthold). […]

Row | Molecule | reduction of β-Galactosidase activity in presence of 4-OHT [1] | reduction of β-Galactosidase activity in presence of 4-OHT [2]
1 | B1 | 91-93% | 91-93%
2 | B2 | 95-99% | 95-99%
